Data taken from the supplement of paper PMC10567573.
± gives the standard deviation.

Assay: protein stability index of a GFP-peptide fusion (GPS, HEK-293T) (PSI 1-6); higher = more stable
Details: c terminus: a fixed tail appended
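Further: 24-mer peptide tiles fused after GFP, lentivirally expressed, FACS-sorted into six equal bins by GFP/DsRed ratio, decoded by Illumina sequencing, PSI is the read-weighted mean bin number.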

Sequence | protein stability index (treatment: DMSO) | protein stability index (treatment: MLN4924 1 uM, 8 h)
PGACPALGTKSCSSSCAVHDLIFW [RTN3] | 2.35 ± 0.33 | 2.29 ± 0.39
PGMASHPPIPILELADHIERLKAN [PTPRD] | 3.6 ± 0.18 | 3.81 ± 0.19
PGPPSAPPPPPKEGHQEGLVELPA [SCNN1D] | 5.46 ± 0.23 | 5.47 ± 0.17
PKDENERSTCNVVQDEFLDTPCTN [DLC1] | 5.45 ± 0.15 | 5.41 ± 0.13
PKKGPAPSLSPGSSCVKYLIFLSN [TSPAN10] | 2.59 ± 0.64 | 2.43 ± 0.21
PLESAFDHEDFTGSSSLGFTSSPS [FCHO1] | 4.81 ± 0.35 | 5.07 ± 0.15
PLHVAQTRLYLRSHRPNMELCRDA [TEKT4] | 2.9 ± 0.17 | 3 ± 0.18
PNGKHSTNFVSRYDPRFNSWIQLP [KLHL14] | 2.32 ± 0.097 | 2.58 ± 0.24
PNSTFPIDKSMTVVLTFITPMLNP [OR4A15] | 2.95 ± 0.38 | 2.97 ± 0.38
PPFWDEDQHRLYKQIKAGAYDFPS [CAMK2A] | 3.4 ± 0.28 | 3.54 ± 0.29
PPHKHVARPTEVLAGTQLLYAFFT [TRIB3] | 2.46 ± 0.21 | 2.43 ± 0.15
PPKWQIGEQEFEALMRMLDNLGYR [ADD1] | 2.35 ± 0.26 | 2.58 ± 0.22
PPPPHPYNPHPGFPELGYSYGGGS [DVL3] | 3.4 ± 0.32 | 3.6 ± 0.32
PPWFEGLESRFQSKSGYLRYSCES [DFFB] | 2.51 ± 0.19 | 2.54 ± 0.2
PQGAVLVQREKDLPNYNWNSFGLR [KISS1] | 3.04 ± 0.17 | 3.13 ± 0.32
PRLHGAKAILDAEPGPRPALQPSP [TBC1D10A] | 4.81 ± 0.19 | 4.94 ± 0.17
PSAAQTLRSFCAWQRGLNTPEDSD [ADAMTS4] | 4.29 ± 0.25 | 4.53 ± 0.17
PSDFCGLTHLVKLDLSKNKLQQLP [LRRC59] | 2.17 ± 0.31 | 2.16 ± 0.17
PSLHVVKVLLDCGADPDSRDFDNN [FEM1A] | 3.46 ± 0.14 | 3.82 ± 0.21
PSPAAVPRPPSNPPARGTLKTSNL [TRAF3IP2] | 5.12 ± 0.1 | 4.94 ± 0.21
PSSLMETLEQHLNTLEGKKPGNNE [SNAP91] | 5.17 ± 0.09 | 5.05 ± 0.17
PTLGGGFHVNLGKESRAQTLQNGR [BRF1] | 4.04 ± 0.47 | 4.14 ± 0.33

Sequence | protein stability index (treatment: DMSO) | protein stability index (treatment: MLN4924 1 uM, 8 h)
PTQLRALNLTEGFAVLHWKPPQNP [TNXB] | 2.8 ± 0.66 | 3.04 ± 0.63
PTRCTLEAGAMTFHYIIEQGVCYL [SEC22B] | 2.93 ± 0.96 | 3.14 ± 0.46
PTSGIVGALMEVMQKRSKAIHSSD [WASL] | 3.14 ± 0.14 | 3.39 ± 0.19
PTVDLNQVLNETRSQYEALVETNR [KRT34] | 3.37 ± 0.55 | 3.79 ± 0.48
PTWWPLPTQVPAAEDYLTWKEWGF [SPAG8] | 2.58 ± 0.18 | 2.35 ± 0.35
PVKASRSHQELHRELLMNHRRGLG [FAM107A] | 3.73 ± 0.27 | 3.95 ± 0.42
PVPATPILQLEECCTHNNSATLSW [TRIM9] | 3.27 ± 0.16 | 3.38 ± 0.18
PWDKNPEALAKWAEGRTGFPWIDA [CRY1] | 3.08 ± 0.17 | 3.04 ± 0.2
QAASRIIRNEQFAIRRFQSMPVRL [CDC25B] | 2.75 ± 0.31 | 2.74 ± 0.49
QALRGLEGYTWRVAQLEDRRSTTD [ZSWIM9] | 3.91 ± 0.23 | 3.75 ± 0.52
QAQPLRTTSTLASSLPGHAAKTLP [EHMT1] | 4.33 ± 0.16 | 4.4 ± 0.29
QDMSQVSGKESPPVSDTPDEGDEP [IKZF1] | 5.38 ± 0.41 | 5.62 ± 0.32
QDSPGPREAVSQLRELCRLWLRPE [ZNF24] | 3.11 ± 0.32 | 2.9 ± 0.24
QEARERWNFDFVTETPLEGDFAWE [CDKN1A] | 4.39 ± 0.29 | 4.29 ± 0.24
QEEMAEDPLTYKSRLMVVVKMDSS [RHOBTB2] | 3.45 ± 0.27 | 3.49 ± 0.24
QEHPRQQLATSSFLLFLLTGIVSV [MOSPD3] | 3.32 ± 0.49 | 2.83 ± 0.096
QELVLKVRIQNPSLRENDFIEIEL [ANKRD40] | 2.68 ± 1.1 | 2.38 ± 1
QEYEALLNIKVKLEAEIATYRRLL [KRT18] | 2.89 ± 0.28 | 2.82 ± 0.42
QFLNDQISVQNYKQVCKIAALHGL [KLHL14] | 2.14 ± 0.28 | 2.17 ± 0.16
QGLEQFINKIAGHPLAQNERCLHM [SNX12] | 2.27 ± 0.13 | 2.41 ± 0.21
QGQPDPAPRPGPPAGTPPPTARHF [MOSPD3] | 3.77 ± 0.21 | 3.65 ± 1.1
QINRLQKLIDRLEKKDLKLEPPEE [NECAB1] | 3.22 ± 0.1 | 3.7 ± 0.56

Sequence | protein stability index (treatment: DMSO) | protein stability index (treatment: MLN4924 1 uM, 8 h)
QKKIGAYDQQIWEKSIEQTQIKGL [PHTF1] | 3.76 ± 0.12 | 3.73 ± 0.22
QKNKKILKSAKDLPPDALIIEYRG [KMT2E] | 2.82 ± 0.43 | 3.07 ± 0.37
QLKKCETRKLSPGKKRCKDIKRLL [SMG5] | 3.32 ± 0.51 | 3.22 ± 0.18
QLNGTANDTAGPELPDPLGGLLDE [NFE2L1] | 5.11 ± 0.32 | 5.37 ± 0.32
QLQALNRRFQQTQYLALPERAELA [DLX1] | 3.05 ± 0.28 | 3.23 ± 0.085
QLWGQKKKNSNMTYEKLSRAMRYY [ELF3] | 2.29 ± 0.042 | 2.32 ± 0.25
QMLRKTVKDEAHQAQKDPKKDRPL [PPP2R5C] | 4.89 ± 0.1 | 4.97 ± 0.24
QQACTHTKETEQLRSQLQTLKQQH [CCDC89] | 4.71 ± 0.17 | 4.65 ± 0.17
QRFEVIEFDDGSGSVLRIQPLRTP [PTPRD] | 2.68 ± 0.28 | 2.99 ± 0.21
QRSTVFKTTIPEEEEEEEEAAGVV [LMNB1] | 5.6 ± 0.11 | 5.56 ± 0.22
QRTHTGEKPYKCPECGEIFAHSSN [ZNF263] | 3.6 ± 0.37 | 4.07 ± 0.47
QSFTLRGDHRSPASAQKFSSRSTV [NET1] | 3.92 ± 0.097 | 3.9 ± 0.3
QTEETQETALTLACCGGFLEVADF [ANKRD17] | 3.79 ± 0.28 | 3.96 ± 0.28
QTNSTKNSAAATSPKGTLPPAALE [CAMK2B] | 5.32 ± 0.16 | 5.22 ± 0.24
QTVFQKKNLQQTTNTTSTQMTNIG [IQUB] | 4.08 ± 0.2 | 4.28 ± 0.27
QVFRLAFRSGALDLDSCSRDGALL [MYORG] | 2.33 ± 0.29 | 2.14 ± 0.091
QYYDDEKKTWKILTIMPYNSAHHC [KLHL14] | 2.56 ± 0.43 | 2.59 ± 0.42
QYYEACRKAAKSLIKLGLERFHGV [ACSBG2] | 3.51 ± 1.3 | 3.45 ± 0.44
RAASAMQFFTKGYQETISDVLNDA [GCH1] | 3.38 ± 0.12 | 3.53 ± 0.072
RCVRVFLEHGADPTVKDLIGGFTA [ASB7] | 2.4 ± 0.78 | 2.04 ± 0.41
RDCGEEMQNGAGASRTSTIFLNGN [TNXB] | 3.99 ± 0.56 | 4.34 ± 0.23
